Substitutions are numbered along the chain they refer to. Where “and” joins values, the source holds several entries; their conditions need not be identical. Identical values can stand only once. Blank lines part the entries; values can stand above or below the binder they belong to.
What was measured:
[1] = biological target: human soluble CD3 (human) (UniProt P07766); test: SPR Biacore affinity
[2] = biological target: human soluble CD3 (human) (UniProt P07766); test: SPR Biacore pH 7.4, average
[3] = biological target: human soluble CD3 (human) (UniProt P07766); test: SPR Biacore pH 7.4
[4] = biological target: human soluble CD3 (human) (UniProt P07766); test: SPR Biacore
[5] = biological target: human soluble CD3 (human) (UniProt P07766); test: SPR Biacore 3000, antigen immobilised
[6] = biological target: human soluble CD3 (human) (UniProt P07766); test: SPR

human soluble CD3 (human), sequence (P07766 23-126, chain 1 of 2): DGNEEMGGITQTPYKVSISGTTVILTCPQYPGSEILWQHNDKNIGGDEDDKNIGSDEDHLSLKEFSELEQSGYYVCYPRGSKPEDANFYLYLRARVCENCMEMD
human soluble CD3 (human), sequence (P04234 22-105, chain 2 of 2, further chain): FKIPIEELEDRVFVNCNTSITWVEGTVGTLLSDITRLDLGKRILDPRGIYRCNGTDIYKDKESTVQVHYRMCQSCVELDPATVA

Kd [4]: 17.1 nM
koff [4]: 0.00768 s⁻¹
kon [4]: 456000 M⁻¹ s⁻¹
B3: 154 EK-DART (bispecific antibody)
chain 1: QSVLTQPPSVSAAPGQKVTISCSGSSSNIGNNYVSWYQQLPGTAPKLLIYDNNKRPSGIPDRFSGSKSGTSATLGITGLQTGDEADYYCGTWDSSLSSYVFGTGTKVTVLGGGSGGGGEVQLVESGGGLVQPGGSLRLSCAASGFTFNTYAMNWVRQAPGKGLEWVARIRSKYNNYATYYADSVKDRFTISRDDSKNSLYLQMNSLKTEDTAVYYCVRHGNFGNSYVSWFAYWGQGTLVTVSSGGCGGGKVAALKEKVAALKEKVAALKEKVAALKE
chain 2: QAVVTQEPSLTVSPGGTVTLTCRSSTGAVTTSNYANWVQQKPGQAPRGLIGGTNKRAPWTPARFSGSLLGGKAALTITGAQAEDEADYYCALWYSNLWVFGGGTKLTVLGGGGSGGGGEVQLVQSGAEVKKPGASVKVSCKASGYTFTSYGISWVRQAPGQGLEWMGWISAYNGNTNYAQKLQGRVTMTTDTSTSTAYMELRSLRSDDTAVYYCATIDTATAFDIWGQGTMVTVSSGGCGGGEVAALEKEVAALEKEVAALEKEVAALEK

Kd [4]: 14.9 nM
koff [4]: 0.00417 s⁻¹
kon [4]: 278000 M⁻¹ s⁻¹
B6: 165 EK-DART (bispecific antibody)
chain 1: B3 chain 1 with T81A, S98A
chain 2: B3 chain 2 with T221N

Kd [4]: 15.9 nM
koff [4]: 0.0111 s⁻¹
kon [4]: 706000 M⁻¹ s⁻¹
B10: 180 EK-DART (bispecific antibody)
chain 1: B3 chain 1 with L4V, S98A
chain 2: B3 chain 2 with T221N

Kd [5]: 23.6 nM
koff [5]: 0.00447 s⁻¹
kon [5]: 189000 M⁻¹ s⁻¹
Kd [6]: 17.1 nM
Kd [4]: 23.6 nM
koff [4]: 0.00447 s⁻¹
kon [4]: 189000 M⁻¹ s⁻¹
B12: 35 EK-DART (bispecific antibody)
chain 1: B3 chain 1 with S98A, Y99V, T103G, V107L
chain 2: B3 chain 2 with T221S

Kd [5]: 5.19 nM
koff [5]: 0.00609 s⁻¹
kon [5]: 979000 M⁻¹ s⁻¹
B13: 20 EK-DART (bispecific antibody)
chain 1: AIQMTQSPSSLSASVGDRVTITCRASQSIGKYLNWYQQIPGKAPKLLIYTASTLQTGVPSRFSGSGSGTDFTLTIVSLQPEDFATYYCQQSFNTPRTFGQGTKVEIKGGGSGGGGEVQLVESGGGLVQPGGSLRLSCAASGFTFNTYAMNWVRQAPGKGLEWVARIRSKYNNYATYYADSVKDRFTISRDDSKNSLYLQMNSLKTEDTAVYYCVRHGNFGNSYVSWFAYWGQGTLVTVSSGGCGGGKVAALKEKVAALKEKVAALKEKVAALKE
chain 2: QAVVTQEPSLTVSPGGTVTLTCRSSTGAVTTSNYANWVQQKPGQAPRGLIGGTNKRAPWTPARFSGSLLGGKAALTITGAQAEDEADYYCALWYSNLWVFGGGTKLTVLGGGGSGGGGEVQLVQSGAEVKKPGASVKVSCKASGYTFTGYYMHWVRQAPGQGLEWMGRINPNSGGTNYAQKFQGRVTMTRDTSISTAYMELSRLRSDDTAVYYCAKGSGSGAFDIWGQGTMVTVSSGGCGGGEVAALEKEVAALEKEVAALEKEVAALEK

Continued, binder first:

B1: 153 VF-DART (bispecific antibody, not shown: small tags and cut ends)
chain 1: QSVLTQPPSVSAAPGQKVTISCSGSSSNIGNNYVSWYQQLPGTAPKLLIYDNNKRPSGIPDRFSGSKSGTSATLGITGLQTGDEADYYCGTWDSSLSGVVFGGGTKLTVLGGGSGGGGEVQLVESGGGLVQPGGSLRLSCAASGFTFSTYAMNWVRQAPGKGLEWVGRIRSKYNNYATYYADSVKGRFTISRDDSKNSLYLQMNSLKTEDTAVYYCVRHGNFGNSYVSWFAYWGQGTLVTVSS
chain 2: QAVVTQEPSLTVSPGGTVTLTCRSSTGAVTTSNYANWVQQKPGQAPRGLIGGTNKRAPWTPARFSGSLLGGKAALTITGAQAEDEADYYCALWYSNLWVFGGGTKLTVLGGGGSGGGGEVQLVQSGAEVKKPGASVKVSCKASGYTFTSYGISWVRQAPGQGLEWMGWISAYNGNTNYAQKLQGRVTMTTDTSTSTAYMELRSLRSDDTAVYYCATIDTANAFGIWGQGTMVTVSS
modifications: One interchain disulfide between the Linker 2 cysteines; these linkers are left out of the letters.
Kd [1]: 4.71 nM
Kd [2]: 4.71 nM
Kd [3]: 4.65 nM and 4.77 nM
koff [3]: 0.00525 s⁻¹ and 0.00555 s⁻¹
kon [3]: 1.13e+06 M⁻¹ s⁻¹ and 1.16e+06 M⁻¹ s⁻¹
t½ [3]: 2.07 min and 1.96 min

B2: 154 VF-DART (bispecific antibody, not shown: small tags and cut ends)
chain 1: B1 chain 1 with G98S, V99Y, G103T, L107V
chain 2: B1 chain 2 with N221T, G224D
Kd [1]: 3.69 nM

B4: 177 EK-DART (bispecific antibody)
chain 1: B3 chain 1 with S98A
chain 2: B3 chain 2 with T221N
Kd [4]: 19.9 nM
koff [4]: 0.00443 s⁻¹
kon [4]: 253000 M⁻¹ s⁻¹

B5: 153 EK-DART (bispecific antibody)
chain 1: B3 chain 1 with S98G, Y99V, T103G, V107L
chain 2: B3 chain 2 with T221N, D224G
Kd [2]: 23.1 nM
Kd [4]: 15.7 nM
koff [4]: 0.00631 s⁻¹
kon [4]: 403000 M⁻¹ s⁻¹
Kd [3]: 22.3 nM and 24 nM
koff [3]: 0.00618 s⁻¹ and 0.0068 s⁻¹
kon [3]: 277000 M⁻¹ s⁻¹ and 283000 M⁻¹ s⁻¹
t½ [3]: 1.76 min and 1.6 min

B7: 179 EK-DART (bispecific antibody)
chain 1: B3 chain 1 with S26R, N52S, Y99W, T103G, V107L
chain 2: B3 chain 2 with T221N
Kd [4]: 25.8 nM
koff [4]: 0.00641 s⁻¹
kon [4]: 306000 M⁻¹ s⁻¹

B8: 33 EK-DART (bispecific antibody)
chain 1: B3 chain 1 with S98A
chain 2: B3 chain 2 with E119Q, V120M, T216L, D218G, T219S, A220G, T221V
Kd [5]: 17.7 nM
koff [5]: 0.00403 s⁻¹
kon [5]: 228000 M⁻¹ s⁻¹

B9: 178 EK-DART (bispecific antibody)
chain 1: B3 chain 1 with S98A, Y99V, T103G, V107L
chain 2: B3 chain 2 with T221N
Kd [4]: 23.1 nM
koff [4]: 0.00526 s⁻¹
kon [4]: 230000 M⁻¹ s⁻¹

B11: 34 EK-DART (bispecific antibody)
chain 1: B3 chain 1 with L4V, S98A, Y99W, T103G, V107L
chain 2: B3 chain 2 with T221S
Kd [5]: 22.8 nM
koff [5]: 0.00445 s⁻¹
kon [5]: 195000 M⁻¹ s⁻¹

Source: patent US20160002357A1
